Experiment: soluble on expression in E. coli; label from the status in PepcDB or PDB records

| Sequence | soluble on expression in E. coli |
| --- | --- |
| MAHHHHHHMHLQIVCLTDEVREMYKHHKTHHEGDSGLDLFIIKDEILKPKSTTFVKLGIKAIALQYKSSYYHKSEANANANANANGKDAPVGMGGVNAKESCAPHQKNPEIVNTSYLLFPRSSISKTPLRLANSIGLIDAGYRGELIAALDNTSEEEYLIKKNDKLVQLVSFTGEPLSFELVDELDETSRGEGGFGSTSNK | soluble |
| SNPQIRNPMKAMYPGTFYFQFKNLWEANDRDETWLCFTVEGIKRRSVVSWKTGVFRNQVDSETHCHAERCFLSWFCDDILSPNTKYQVTWYTSWSPCPDCAGEVAEFLARHSNVNLTIFTARLYYFQYPCYQEGLRSLSQEGVAVEIMDYEDFKYCWENFVYNDNEPFKPWKGLKTNFRLLKRRLRESLQ | soluble |
| MENLYFQGLEHHHHHHENSSPYTSEHFHYTVTDIKDLTKLGAIYDKTKKYWVYQGKPVMPDQFTFELLDFLHQLTHLSFSKMKALLERSHSPYYMLNRDRTLKNITETCKACAQVNASKS | soluble |
| MENPPAEPFFLDASPGKRFCLYHSPAGDTPLNQVFIYLHPFAEEMNKSRRMAALQAKAFAAMGFGVLQIDLYGCGDSAGDFGEATWEIWKNDVEFAYQWLIQQGFTSVHFWGLRLGALLALDYAGKAETGSAKFILWQPVINGKSFLTQFLRLRLVNKLLSDDSDKAQNVHLREELRAGKSLEIAGYTLSPAMAAAIDELKLGQLVVGNSEIYWFEITPEAGRGLPPAGAAVVEAWNQSGVYPEVTLIPGLPFWATQEISECPALLAATAKLFAGIQP | not soluble |
| MGHHHHHHSHMSQHGQSCLSLAGTIDCSVPDILLKSGVIGLAQWLTPVIPALWETEAGGSLEVRSSRPAWPTWRNPISTKNTKISQTWWRMPVVLATWEAEAGESVNLGGRGCSELRRCRCTPAWATRAKLHLRKNKNKNNGVTKT | not soluble |
| GMENELEDKILAILEQHQVGVLTSVQGDFPHARYMTFLHDGLTLYTPSGKELPKTEEVRRNPHVCVLIGYDSPGSAFLEINGLASLEEDESIKERIWENISKDWFQGEDSPSFVVIKIVPEQIRILNS | soluble |
| GANNDMPVEQILEAELAVDPKIDTYIDAQKDPVTNICQAADKQLFTLVEWAKRIPHFTELPLEDQVILLRAGWNELLIAGFSHRSIMAKDGILLATGLHVHRSSAHQAGVGTIFDRVLTELVAKMRDMKMDKTELGCLRAVVLFNPDAKGLTAVQEVEQLREKVYASLEEYTKSRYPEEPGRFAKLLLRLPALRSIGLKCLEHLFFFKLIGDQPIDTFLMEMLENPSPAT | soluble |
| SLGFIMKLTKTALCTALFATFTFSANAQTYPDLPVGIKGGTGALIGDTVYVGLGSGGDKFYTLDLKDPSAQWKEIATFPGGERNQPVAAAVDGKLYVFGGLQKNEKGELQLVNDAYRYNPSDNTWMKLPTRSPRGLVGSSGASHGDKVYILGGSNLSIFNGFFQDTVAAGEDKAKKDEIAAAYFDQRPEDYFFTTELLSYEPSTNKWRNEGRIPFSGRAGAAFTIQGNELVVVNGEIKPGLRTAETHQGKFTAKGVQWKNLPDLPAPKGKSQDGLAGALSGYSNGHYLVTGGANFPGSIKQFKEGKLHAHKGLSKAWHNEVYTLNNGKWRIVGELPMNIGYGFSVSYNNKVLLIGGETDGGKALTSVKAISYDGKKLTIE | not soluble |
| MSLSDPNTSGSGVVGESSGVRVAIEGCGHGCLHSIYASVERAAALKGWDGVDLLIIGGDFQAVRNSNDMACMSVPNKYKEIGDFHEYYSGQRTAPYLTIFVGGNHEASNHLFELYYGGWVAPNIYYMGAANVLRFGPLRIAGLSGIWKGRDYRKPHFERLPYNDDDIKSIYHVRELDVRKLLQVRTQIDVGLSHDWPRQIEYCGDWQQLFRAKPLFRRDSQNGTLGSTAAEYVLNRLRPAYWFSAHLHVKFAASVQHGPQEVVPNRQYGLDGASLTSMLSETEEASRQTGYSQAEAEPNAHAVSETGTTEEGHHHHHH | soluble |
| MEFGASFAYRRIDAHVEATLQEAAQVLEKLVIERDAESAITVASQGTPDAISITQAAHETISIDSILRSSKQPKATIRTPRDSNKNRKLTFPPARIGFKSEQLETCDSGITDSTIDQDPPTPDSLFPSAIYIPAKQKPQMTVSISATTASSCSNKSLYRKHIEKLAIEPLEDIKHLKCRGLKKSKPDDLFPKATYDAGTGKPKMALSPSSMVSVDLSYASTTAKSNSLAYQPMEFVSSDGRVKLWLQPLEKQKKKNSEKSKKRERCIDDAPIPPKQLQSSTKLNIENRTKFSTNLSIGDHVIDLSGILNGSMKKKNLAKLVINGQSYSI | not soluble |
| MQFSLVIPVYNAGMMWPEVIRSIKSQTIQPECVIIIDSSSTDNTVAYATEAGFEVYHIDKSTFDHGGTRSMALERVNTEFVIYMTQDAILQNDEAFFYLLSAFNNEEVGAVYGRQLPHHDANPLATHARLHSYGEVGYVTSMKDDFPQGFRKAFMSNSFSGYRVSTLRQIGGFPAKLILGEDSYVAARMLSTGVSVGYIPQALARHSHNYSVGEEFKRYFDIGVFHKTQEWMLASLGKVEGEGVKFALGQICYLLKSNYYHYIPFSIASSGAKYLGYKLGKNYHRLNRTLCKKLSMYKSYWNSSVLEHHHHHH | soluble |
| MGSDKIHHHHHHMADAATLKARVAQIFREAWTTREGQKVPDPGDVKLGNDAVEFEKATILYADLSGSTDLVNAHGWTFAAEIYKTYLHCAATIIRDEGGSIVSYDGDRVMGVFIGDPQTTPAARAGLKINYAVQEIINPALKAQYPSNTFVVRQVVGIDTSPIRAARTGVRGDNDLVWVGRAANYAAKLTELKLDERTWITKEAYDRLTDDAKFGGANRTLMWKFYRWSQMNDHPIYGSTWRWSL | not soluble |
| MSLAVTLADVARRAGVSLATASRVLNGSARAVSDEMRARVTAAARELHYVPNAHAQALARAATQTVGVIVHDVSDPYFAEILRGIQRSAADAGRLMIVCNTFRDPQRELEYVHLLQKQRVEAIILAGSGLDDRAYCRSMTERLDSFASMGGRVAVIGRHNIAADAVVPDNVGGARALAHYLLDLGHRSFGIIDGPALLTTSRDRRSGFVQALQAGGITLPPDAIIPGDFTRDGGAQAAIRLLERFPSITAIFALNDVMAIGALAALRERGITVPDQMSIVGFDDIPIAADVTPALTTMRVPMSQLGSEALALALSAEDTLRTIHLPTEMIVRQSTAEGHHHHHH | soluble |
| MGSDKIHHHHHHCGGSGSSEPVAPTTTPDTGFSFAATAMITNLTQEVIVTGYADLAAKGSELVLATQKLINSTSQADLVAAQDAWKAARQPWEQGESHIFGPVDSLSIDPHLDSWPLNTTDLSTQLTTAAGFDAETIKSWNDDVQGFHTMEYLLFGDGVADNTKDISELTVKEREYLIALAQVFRDHAKTLDDAWQINHKPDDANAKPYAELLSQPGVDGNTVYSSELAVIEELINGMIGIVDEVGNGKISDPFGDSITSADTSKVESQYSWNSLTDFANNIQGVRNVYQGEFTGNTDKQGVKDFVSAADANLAVRVASEIDDAIIKIQAISGSNSMPFRQAIKDANGRVRIQTAIDALTKLKTSLESDVIPLLSKWKPA | not soluble |
| RPSSVVIGTASQGGVYYIYGGGLAQLLDRELGVSSNVEVTGGPVHNMQLVNEQEQDIGMITMGPGYEGVLGEGEWTGGETYDNVRVIFPMYTTPFHWWSLESSGVTSIEDMDGMRVGVGPSGGTSGTYLPIIHEVLGLDITPVLAGANDMVSQQLDGQLDVIGFAAGLPIPAVAEVEAQRDIHLFGIDGENRDKVLEALPYFEPYTIPADTYDQLDEDLETIAMFNFGITYSEMNADFVYELVKAYHENNDLLMTTHSSAEEAVPEAILRNEVVPLHVGAIRYYEEIGIDLPESVYPAEWENE | not soluble |
| GPLGSCSSPQVEIPTTYSPEKIAQLQVYVNPIAVARDGMEKRLQGLIADQNWVDTQTYIHGPLGQLRRDMLGLASSLLPKDQDKAKTLAKEVFGHLERLDAAAKDRNGSQAKIQYQEALADFDSFLNLLPQAS | soluble |
| MSLRYTNSHLEDWIENLYKKIDITEPEQINFERIAEALDIRLSFKPVTSFALKHSGIYNICLDSRKSRTEQWYDFAHEFCHIYRHEGDKKTMPATWTDYLDWQSNYFTYHFCIPTCMLRNINLPYIQSHAIENVAWLFKVSPSFAKKRLSIYYRKLTQHLFSQTVTGNLCPPFLEGHHHHHH | not soluble |
| MSRQEVGYPFHLGRTLKLPQDPPGMAAIYLQSCSGGLFAGETLHLQLHAGPHTQVHVSTGAATVAHSMLEQPARQTVTLIAETGALLEYLPMATILFPQARLHSVVNVTLHPNARVMLCDAFCLHVPPGSAGLPGFYRADLHIRCPAGTLLAGDRLALTGADLQRRLPGVSAELQALATFMLVGQDLPVDELKRALRDALRVVPESYLGVSALPNDCGVSVRIMTADAVALRSALHLAWACARQQLTGIAPRVRRKLEHHHHHH | not soluble |
| MGSDKIHHHHHHMDLRQIKTFVVVAEELHFGRAAARLQIAQPAVTAQIQALERQLGVPLLIRSTRRVQLTEAGMIFNSRCIDILRDIDRTCLATQAVAGKDLHQITIGTIYPATFGVLPNFVSRINQRFPEARIHIHNGNTVGIVREIERGNINLGFIRPVENIGSLRWQSIHREKYLLAIARENPLSSKSTVTPDDLRKQKIIAFSRAYNSQTDDNFPEEFKKYDLNQQVVYSCNDTQAMLAMITAGIGVGFVPEWVKSIPGQNFELREVEGLERHIGLGLAWSVDDPTVNRDSIIELCRTLIGSEVDWPR | not soluble |
| MGSDKIHHHHHHMGFEMTRGHLTWNDFKIVMAIANAGSLSGAARSLGVNHATVFRRLGDIERRLGVALFERSRKGYKPSLAGEELANTARIMDEAAHSAERKVAGRDLRPSGEIWVTTTDSLLMGLLAPLFKEFRNRYPDIVLDVAVANEMLNLTRREADVGIRPVNRPPENLIGRRLATVGQAIFGHRNLGLDKGQSIDFLSQQPWIGAGPRLQDSVLEQWMAQKNLADACVFRVDTLVGLLSAVNEGLGLAALPCYLAETCPDIVQLSDPIPELNYDLRKPLKVATHST | not soluble |
| MGSDKIHHHHHHMDFSDEKMPFLADAVDRVRVEECFRQCLVIAQNFRVQNIRVIRHKLGRRCLIEYELMDDVGEIITLIGKVRAKGTDFHSYELQKSLWESGFADDSADGISVPEPVGIIPEWQMWLQRRVEGVTATQILSQTNGIFPAKLIAEAAYKLHQANIIPRRSHRMSDELRILHERIPLVMEQYPQWQRRLERILLASDDLGANTPELKLCGIHRDFYPDQVIMNNSRLYLLDLDLYCAGNPAVDIGNFIAHLQEYSLRTVGNPQALQEYEDILKTRFLQLTGDEFSLAIQAYTILTLVRHIYISTLFPERRPFTAALLHLCEQRLNITHNS | not soluble |
| AQAALKDGTYSVDYTVLQGDSDSVSMANDYFDKPATVTVNGGKSTVSLQVNHSKWITGLWVEGNAVSVTSKNTASDTRKVSFPVSTLSSPVNAKIKVDIDDDGLNYHHEYQIQLRFDEGAVKSSGAAV | not soluble |
| YHHSVVVGNLSEAACESIGENGLLARVGSYYHDLGKTRRPHFFIENQMKMENPHDRISPQLSATIIISHPYDGAKMLKEYKMPKEIIDIAEQHHGTSLLKYFYHKAQQESDQEVEETSFRYPGPKAQSKVAAIVGIADSVEA | soluble |
| MSITHQPANLTLAQIQQMIGGVMLLSQHSPLHRRYVVAEWLQRILPAFELNQFCYYEDEHGRPIAFCNWAFVSEQIRDELLSGVREISPSDWRSGQQIYIPEMIAPFGHGREVVNDLRRRVFLPWQGQKVCTVRGKVDAQNDRCIRKVQWFSI | not soluble |
